Data from PMC4532127.

Target: TSH receptor (solubilized porcine thyroid membrane) (porcine (endogenous in thyroid membrane)) (UniProt Q8SPP9)
Experiment: radioligand binding

UniProt Q8SPP9, sequence (Q8SPP9 22-764): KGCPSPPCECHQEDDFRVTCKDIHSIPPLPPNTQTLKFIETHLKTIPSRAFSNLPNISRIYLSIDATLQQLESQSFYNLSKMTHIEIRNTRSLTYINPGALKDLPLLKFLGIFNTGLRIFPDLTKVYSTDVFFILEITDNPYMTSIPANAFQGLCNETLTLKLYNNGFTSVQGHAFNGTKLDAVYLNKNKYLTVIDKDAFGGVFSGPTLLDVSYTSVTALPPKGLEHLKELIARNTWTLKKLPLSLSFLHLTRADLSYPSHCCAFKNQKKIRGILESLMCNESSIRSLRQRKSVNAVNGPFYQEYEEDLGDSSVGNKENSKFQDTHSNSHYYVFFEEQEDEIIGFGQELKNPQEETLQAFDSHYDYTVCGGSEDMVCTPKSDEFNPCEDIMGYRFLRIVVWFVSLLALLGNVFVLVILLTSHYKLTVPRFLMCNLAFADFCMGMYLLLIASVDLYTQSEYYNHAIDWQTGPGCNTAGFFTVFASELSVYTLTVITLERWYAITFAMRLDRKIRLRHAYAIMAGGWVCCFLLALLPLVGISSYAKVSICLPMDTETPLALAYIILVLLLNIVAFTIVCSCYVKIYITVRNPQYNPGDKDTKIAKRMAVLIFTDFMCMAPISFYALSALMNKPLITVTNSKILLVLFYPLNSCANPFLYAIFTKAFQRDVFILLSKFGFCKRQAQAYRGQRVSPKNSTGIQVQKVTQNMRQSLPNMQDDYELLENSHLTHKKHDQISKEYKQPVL

With “125I-labelled bTSH (bovine thyroid-stimulating hormone) (from UniProt P01217 25-120; P01223 21-132) (ligand)” the cpm of bound 125I-bTSH (TSH receptor present, heat-treated normal pooled IgG) was 6950 cpm, the cpm of bound 125I-bTSH (TSH receptor present, normal pooled IgG) was 7810 cpm and the cpm of bound 125I-bTSH, T B (Bo) was 7000 cpm.
